Assay results: publication PMC10397247

How the values were obtained:
4H2717-bH = molecular target: T1, 4H2717-bH; experiment: two-hybrid library CCNG1;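 also: natural log of median RNA to DNA barcode read ratio; higher means stronger binding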
T1 chain: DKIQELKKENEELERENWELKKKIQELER

4H619-bH = molecular target: T2, 4H619-bH; experiment: two-hybrid library CCNG1;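 also: natural log of median RNA to DNA barcode read ratio; higher means stronger binding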
T2 chain: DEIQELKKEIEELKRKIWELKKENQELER

4H40-bH = molecular target: T3, 4H40-bH; experiment: two-hybrid library CCNG1;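 also: natural log of median RNA to DNA barcode read ratio; higher means stronger binding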
T3 chain: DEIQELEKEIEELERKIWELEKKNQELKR

4H477-bH = molecular target: T4, 4H477-bH; experiment: two-hybrid library CCNG1;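 also: natural log of median RNA to DNA barcode read ratio; higher means stronger binding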
T4 chain: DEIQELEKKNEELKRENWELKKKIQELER

4H2503-bH = molecular target: T5, 4H2503-bH; experiment: two-hybrid library CCNG1;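 also: natural log of median RNA to DNA barcode read ratio; higher means stronger binding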
T5 chain: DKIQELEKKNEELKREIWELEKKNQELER

4H741-bH = molecular target: T6, 4H741-bH; experiment: two-hybrid library CCNG1;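 also: natural log of median RNA to DNA barcode read ratio; higher means stronger binding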
T6 chain: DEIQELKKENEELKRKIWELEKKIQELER

4H3277-bH = molecular target: T7, 4H3277-bH; experiment: two-hybrid library CCNG1
T7 chain: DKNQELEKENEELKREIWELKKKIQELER

4H3057-bH = molecular target: T8, 4H3057-bH; experiment: two-hybrid library CCNG1
T8 chain: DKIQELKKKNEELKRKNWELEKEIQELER

4H2915-bH = molecular target: T9, 4H2915-bH; experiment: two-hybrid library CCNG1
T9 chain: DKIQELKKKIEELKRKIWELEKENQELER

4H2839-bH = molecular target: T10, 4H2839-bH; experiment: two-hybrid library CCNG1
T10 chain: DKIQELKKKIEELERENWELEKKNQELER

4H2588-bH = molecular target: T11, 4H2588-bH; experiment: two-hybrid library CCNG1
T11 chain: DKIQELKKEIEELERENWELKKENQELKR

4H2692-bH = molecular target: T12, 4H2692-bH; experiment: two-hybrid library CCNG1
T12 chain: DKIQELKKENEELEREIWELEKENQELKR

4H2473-bH = molecular target: T13, 4H2473-bH; experiment: two-hybrid library CCNG1
T13 chain: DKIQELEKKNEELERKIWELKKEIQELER

4H319-bH = molecular target: T14, 4H319-bH; experiment: two-hybrid library CCNG1
T14 chain: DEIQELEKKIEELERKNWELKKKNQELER

4H492-bH = molecular target: T15, 4H492-bH; experiment: two-hybrid library CCNG1
T15 chain: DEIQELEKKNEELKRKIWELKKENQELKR

4H348-bH = molecular target: T16, 4H348-bH; experiment: two-hybrid library CCNG1
T16 chain: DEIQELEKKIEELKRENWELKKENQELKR

4H3066-AA = molecular target: T17, 4H3066-AA; experiment: two-hybrid library CCmax; conditions: mean of both orientations
T17 chain: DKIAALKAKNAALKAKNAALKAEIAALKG

4H428-AA = molecular target: T18, 4H428-AA; experiment: two-hybrid library CCmax; conditions: mean of both orientations
T18 chain: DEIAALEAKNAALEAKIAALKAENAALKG

4H3666-AA = molecular target: T19, 4H3666-AA; experiment: two-hybrid library CCmax; conditions: mean of both orientations
T19 chain: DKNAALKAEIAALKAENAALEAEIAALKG

4H1854-AA = molecular target: T20, 4H1854-AA; experiment: two-hybrid library CCmax; conditions: mean of both orientations
T20 chain: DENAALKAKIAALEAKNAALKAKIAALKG

4H391-AA = molecular target: T21, 4H391-AA; experiment: two-hybrid library CCmax; conditions: mean of both orientations
T21 chain: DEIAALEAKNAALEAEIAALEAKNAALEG

4H1391-AA = molecular target: T22, 4H1391-AA; experiment: two-hybrid library CCmax
T22 chain: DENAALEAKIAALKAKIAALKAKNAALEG

4H3446-AA = molecular target: T23, 4H3446-AA; experiment: two-hybrid library CCmax; conditions: mean of both orientations
T23 chain: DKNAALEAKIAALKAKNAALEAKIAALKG

4H3591-AA = molecular target: T24, 4H3591-AA; experiment: two-hybrid library CCmax; conditions: mean of both orientations
T24 chain: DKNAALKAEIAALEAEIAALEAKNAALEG

4H497-AA = molecular target: T25, 4H497-AA; experiment: two-hybrid library CCmax; conditions: mean of both orientations
T25 chain: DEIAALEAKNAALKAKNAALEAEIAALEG

4H2742-AA = molecular target: T26, 4H2742-AA; experiment: two-hybrid library CCmax
T26 chain: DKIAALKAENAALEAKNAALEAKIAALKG

4H971-AA = molecular target: T27, 4H971-AA; experiment: two-hybrid library CCmax; conditions: mean of both orientations
T27 chain: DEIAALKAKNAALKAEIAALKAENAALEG

4H2283-AA = molecular target: T28, 4H2283-AA; experiment: two-hybrid library CCmax; conditions: mean of both orientations
T28 chain: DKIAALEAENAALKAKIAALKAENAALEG

4H3121-AA = molecular target: T29, 4H3121-AA; experiment: two-hybrid library CCmax; conditions: mean of both orientations
T29 chain: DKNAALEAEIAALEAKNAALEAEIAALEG

4H3029-AA = molecular target: T30, 4H3029-AA; experiment: two-hybrid library CCmax; conditions: mean of both orientations
T30 chain: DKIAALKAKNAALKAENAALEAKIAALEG

4H2248-AA = molecular target: T31, 4H2248-AA; experiment: two-hybrid library CCmax; conditions: mean of both orientations
T31 chain: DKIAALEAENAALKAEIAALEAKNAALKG

4H656-AA = molecular target: T32, 4H656-AA; experiment: two-hybrid library CCmax; conditions: mean of both orientations
T32 chain: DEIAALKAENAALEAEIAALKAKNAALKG

4H1809-AA = molecular target: T33, 4H1809-AA; experiment: two-hybrid library CCmax; conditions: mean of both orientations
T33 chain: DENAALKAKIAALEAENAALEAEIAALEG

4H675-AA = molecular target: T34, 4H675-AA; experiment: two-hybrid library CCmax; conditions: mean of both orientations
T34 chain: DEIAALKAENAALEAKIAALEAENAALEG

4H3939-AA = molecular target: T35, 4H3939-AA; experiment: two-hybrid library CCmax; conditions: mean of both orientations
T35 chain: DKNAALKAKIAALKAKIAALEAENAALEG

4H3709-AA = molecular target: T36, 4H3709-AA; experiment: two-hybrid library CCmax; conditions: mean of both orientations
T36 chain: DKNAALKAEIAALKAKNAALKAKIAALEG

4H3417-AA = molecular target: T37, 4H3417-AA; experiment: two-hybrid library CCmax; conditions: mean of both orientations
T37 chain: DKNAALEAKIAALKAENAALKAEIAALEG

4H146-AA = molecular target: T38, 4H146-AA; experiment: two-hybrid library CCmax; conditions: mean of both orientations
T38 chain: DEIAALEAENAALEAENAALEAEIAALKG

4H2948-AA = molecular target: T39, 4H2948-AA; experiment: two-hybrid library CCmax; conditions: mean of both orientations
T39 chain: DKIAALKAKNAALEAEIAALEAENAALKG

4H3628-AA = molecular target: T40, 4H3628-AA; experiment: two-hybrid library CCmax; conditions: mean of both orientations
T40 chain: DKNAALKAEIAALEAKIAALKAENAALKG

4H3920-AA = molecular target: T41, 4H3920-AA; experiment: two-hybrid library CCmax; conditions: mean of both orientations
T41 chain: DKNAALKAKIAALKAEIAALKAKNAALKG

4H2991-AA = molecular target: T42, 4H2991-AA; experiment: two-hybrid library CCmax; conditions: mean of both orientations
T42 chain: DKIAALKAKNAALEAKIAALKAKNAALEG

4H189-AA = molecular target: T43, 4H189-AA; experiment: two-hybrid library CCmax; conditions: mean of both orientations
T43 chain: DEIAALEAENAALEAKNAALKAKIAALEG

4H2713-AA = molecular target: T44, 4H2713-AA; experiment: two-hybrid library CCmax; conditions: mean of both orientations
T44 chain: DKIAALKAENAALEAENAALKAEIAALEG

4H478-AA = molecular target: T45, 4H478-AA; experiment: two-hybrid library CCmax; conditions: mean of both orientations
T45 chain: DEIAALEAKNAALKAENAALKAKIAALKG

4H3102-AA = molecular target: T46, 4H3102-AA; experiment: two-hybrid library CCmax; conditions: mean of both orientations
T46 chain: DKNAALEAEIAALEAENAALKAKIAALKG

B1: 4H2473-bH (peptide)
chain: DKIQELEKKNEELERKIWELKKEIQELER
interaction score (4H2717-bH): -0.241
interaction score (4H619-bH): -2.35
interaction score (4H40-bH): -0.286
interaction score (4H477-bH): -1.42
interaction score (4H2503-bH): 0.0804
interaction score (4H741-bH): -0.491
interaction score (4H3277-bH): -0.651
interaction score (4H3057-bH): 0.309
interaction score (4H2915-bH): 0.134
interaction score (4H2839-bH): -0.0772
interaction score (4H2588-bH): -0.165
interaction score (4H2692-bH): 0.549
interaction score (4H2473-bH): 1.05
interaction score (4H319-bH): -1.01
interaction score (4H492-bH): 0.0302
interaction score (4H348-bH): -0.545

B2: 4H1391-AA (peptide)
chain: DENAALEAKIAALKAKIAALKAKNAALEG
interaction score (4H3066-AA): -1.99
interaction score (4H428-AA): -1.77
interaction score (4H3666-AA): -1.8
interaction score (4H1854-AA): -1.81
interaction score (4H391-AA): -1.36
interaction score (4H1391-AA): -0.77
interaction score (4H3446-AA): -1.64
interaction score (4H3591-AA): 2.15
interaction score (4H497-AA): -1.59
interaction score (4H2742-AA): -1.48
interaction score (4H971-AA): -1.37
interaction score (4H2283-AA): -1.61
interaction score (4H3121-AA): -1.32
interaction score (4H3029-AA): -1.41
interaction score (4H2248-AA): -1.32
interaction score (4H656-AA): -1.09
interaction score (4H1809-AA): -0.868
interaction score (4H675-AA): -1.62
interaction score (4H3939-AA): -1.09
interaction score (4H3709-AA): -1.44
interaction score (4H3417-AA): -1.93
interaction score (4H146-AA): -1.65
interaction score (4H2948-AA): -1.19
interaction score (4H3628-AA): 0.211
interaction score (4H3920-AA): -0.296
interaction score (4H2991-AA): -2.12
interaction score (4H189-AA): -1.54
interaction score (4H2713-AA): -1.47
interaction score (4H478-AA): -1.53
interaction score (4H3102-AA): -1.1
